Earlier results in publication PMC3901153.
pKd: −log10 of the molar value.

Key:
RAGE (Homo sapiens) = RAGE (Homo sapiens) (UniProt Q15109)
TLR4 (Homo sapiens) = TLR4 (Homo sapiens) (UniProt O00206)
Sequence of UniProt O00206 (O00206 24-839): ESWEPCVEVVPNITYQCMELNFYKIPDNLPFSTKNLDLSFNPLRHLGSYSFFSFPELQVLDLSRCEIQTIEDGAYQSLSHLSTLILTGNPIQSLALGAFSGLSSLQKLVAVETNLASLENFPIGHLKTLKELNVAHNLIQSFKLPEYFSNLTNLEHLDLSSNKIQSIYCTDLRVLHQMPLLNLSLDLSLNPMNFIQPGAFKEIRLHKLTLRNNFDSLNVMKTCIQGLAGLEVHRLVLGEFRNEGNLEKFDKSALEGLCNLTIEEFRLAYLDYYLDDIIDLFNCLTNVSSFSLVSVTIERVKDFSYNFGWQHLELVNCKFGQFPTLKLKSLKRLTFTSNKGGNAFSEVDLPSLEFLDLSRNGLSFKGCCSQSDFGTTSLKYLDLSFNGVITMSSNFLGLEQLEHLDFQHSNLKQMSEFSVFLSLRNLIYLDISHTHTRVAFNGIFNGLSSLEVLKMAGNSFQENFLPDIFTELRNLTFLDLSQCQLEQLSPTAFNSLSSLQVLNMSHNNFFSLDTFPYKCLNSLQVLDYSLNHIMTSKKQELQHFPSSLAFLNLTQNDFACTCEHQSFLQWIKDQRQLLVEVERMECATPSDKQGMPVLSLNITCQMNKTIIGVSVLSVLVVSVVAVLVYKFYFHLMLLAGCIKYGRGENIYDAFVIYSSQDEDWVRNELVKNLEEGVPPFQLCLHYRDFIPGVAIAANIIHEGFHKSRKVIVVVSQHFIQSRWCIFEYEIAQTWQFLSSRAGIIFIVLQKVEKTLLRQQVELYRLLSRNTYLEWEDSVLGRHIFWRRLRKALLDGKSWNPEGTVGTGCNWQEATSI

Sequence of UniProt Q15109 (Q15109 23-404): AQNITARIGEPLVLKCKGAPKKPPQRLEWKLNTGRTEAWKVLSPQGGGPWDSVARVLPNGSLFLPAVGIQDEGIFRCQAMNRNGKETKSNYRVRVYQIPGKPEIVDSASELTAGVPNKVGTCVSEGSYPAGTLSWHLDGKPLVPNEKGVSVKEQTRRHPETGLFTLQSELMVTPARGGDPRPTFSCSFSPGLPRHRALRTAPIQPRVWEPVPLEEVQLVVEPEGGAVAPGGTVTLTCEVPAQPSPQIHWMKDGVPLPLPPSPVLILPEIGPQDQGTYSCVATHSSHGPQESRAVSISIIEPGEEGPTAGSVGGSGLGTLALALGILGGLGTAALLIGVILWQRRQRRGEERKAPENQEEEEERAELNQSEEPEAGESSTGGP

What does the source list for HMGB1 (from UniProt P09429)?
pKd (RAGE (Homo sapiens)): 8.00; pKd (TLR4 (Homo sapiens)): 5.82
